Where a chain is given by its changes, count along the chain named.
What was measured:
crystal structure = target: the molecule itself; assay: crystal structure
RcsB wild-type [1] = target: T1, RcsB wild-type (Salmonella Typhimurium, UniProt P58663 1-216); assay: EMSA
T1 sequence: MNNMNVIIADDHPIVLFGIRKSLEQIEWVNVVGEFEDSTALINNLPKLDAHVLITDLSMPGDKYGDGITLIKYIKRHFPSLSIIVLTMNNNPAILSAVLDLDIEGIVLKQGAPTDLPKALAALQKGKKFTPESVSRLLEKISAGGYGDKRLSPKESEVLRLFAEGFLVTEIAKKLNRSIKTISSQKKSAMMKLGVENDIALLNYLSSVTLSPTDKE

RcsB wild-type [2] = target: T1, RcsB wild-type; assay: EMSA; remark: listed apart in the source
RcsB wild-type [3] = target: T1, RcsB wild-type; assay: crystal structure
RcsB-L108A = target: T2, RcsB-L108A (Salmonella Typhimurium, UniProt P58663 1-216, L108A); assay: EMSA
T2 sequence: T1 sequence with L108A

RcsB wild-type [4] = target: T1, RcsB wild-type; assay: EMSA; remark: listed apart in the source

B1: RcsB from S. Typhimurium, full-length wild-type, bound to phosphomimetic BeF3- (natural protein, UniProt P58663 1-216, looked up)
chain: T1 sequence
modifications: phosphomimetic BeF3- bound in the active site (phosphorylatable residue D56)
Crystal structure
  stoichiometry N: 2

B2: P1flhDC second AGA to AGG (dsDNA)
DNA 1: CGAATTAGGAAAAACCTTAGGCG
DNA 2: CGCCTAAGGTTTTTCCTAATTCG
RcsB wild-type [1]
  binding result: binds

B3: ytfK (dsDNA)
DNA 1: GATGTTTAGATAATTCTGAATAA
DNA 2: TTATTCAGAATTATCTAAACATC
RcsB wild-type [2]
  binding result: binds

B4: osmB (dsDNA)
DNA 1: CTCTCTAAGACTTTTCTGACATC
DNA 2: GATGTCAGAAAAGTCTTAGAGAG
RcsB wild-type [2]
  binding result: binds

B5: nlpD (dsDNA)
DNA 1: ACCTTTCGGAATATTCCCATACT
DNA 2: AGTATGGGAATATTCCGAAAGGT
RcsB wild-type [2]
  binding result: binds

B6: flgA (dsDNA)
DNA 1: GTTAATAAGAATATTCCCATCAG
DNA 2: CTGATGGGAATATTCTTATTAAC
RcsB wild-type [2]
  binding result: binds

B7: PrprA (dsDNA)
DNA 1: CCTATTGAGACGAATCTGATCGG
DNA 2: CCGATCAGATTCGTCTCAATAGG
RcsB wild-type [3]
  binding result: binds

B8: P1flhDC (dsDNA)
DNA 1: CGAATTAGGAAAAATCTTAGGCG
DNA 2: CGCCTAAGATTTTTCCTAATTCG
RcsB-L108A
  binding result: no binding

B9: P1flhDC first GGA to AGA (dsDNA)
DNA 1: CGAATTAAGAAAAATCTTAGGCG
DNA 2: CGCCTAAGATTTTTCTTAATTCG
RcsB wild-type [4]
  binding result: binds

Reference: PMC7913699 (Nucleic Acids Research, 2021)
